Source: patent publication US20190055314A1 (ADAGENE, published 2019)
Where a chain is given by its changes, count along the chain named. Blank lines part the entries; values can stand above or below the binder they belong to.

How the values were obtained:
[1] = biological target: T1, human CD137-His6 (Sino Biological #10041-H08H) (human, UniProt Q07011 24-186); assay: SPR Biacore, IgG
T1 construct: Bought; also called human CD137 protein; not shown: His6 tag

[2] = biological target: T2, mouse CD137 fused with human FC fragment (mouse, UniProt P20334 24-178, limits assumed); assay: ELISA, coated CD137-Fc
T2 construct: also called mouse CD137-Fc; not shown: human Fc fragment
T2 sequence: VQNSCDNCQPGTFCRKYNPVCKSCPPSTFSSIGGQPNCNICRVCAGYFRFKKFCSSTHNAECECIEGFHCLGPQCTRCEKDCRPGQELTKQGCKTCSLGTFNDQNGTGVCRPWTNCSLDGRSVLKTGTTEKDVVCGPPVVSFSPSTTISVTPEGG

Hu_CRD3 = biological target: T3, Hu_CRD3 (human, limits assumed); assay: flow cytometry, yeast display [Cont.]
T3 construct: also called human CD137 CRD3
T3 chain: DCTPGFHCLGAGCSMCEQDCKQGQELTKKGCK

[3] = biological target: T4, full-length mouse CD137 on the cell surface (mouse, UniProt P20334 24-178); assay: flow cytometry, yeast display [Cont.]
T4 sequence: T2 sequence

[4] = biological target: T5, rat CD137 on the cell surface (rat, UniProt Q4W8J3 24-258); assay: flow cytometry, HEK293F cells expressing CD137
T5 sequence: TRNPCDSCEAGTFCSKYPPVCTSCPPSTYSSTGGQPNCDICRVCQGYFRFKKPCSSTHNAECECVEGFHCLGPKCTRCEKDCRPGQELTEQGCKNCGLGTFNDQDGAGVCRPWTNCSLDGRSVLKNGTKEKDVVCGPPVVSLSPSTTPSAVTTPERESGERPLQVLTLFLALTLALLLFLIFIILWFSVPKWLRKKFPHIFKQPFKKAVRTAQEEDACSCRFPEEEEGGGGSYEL

[5] = biological target: T4, full-length mouse CD137 on the cell …; assay: flow cytometry, HEK293F cells expressing CD137 or mutant
[6] = biological target: T6, mouse CD137 protein (Biacore) (mouse, UniProt P20334 24-178, limits assumed); assay: SPR Biacore
T6 construct: Construct used as SPR analyte not described
T6 sequence: T2 sequence

B1: AG10129 (antibody, human IgG4 S228P, kappa, V domains shown)
VH: EVQLVESGGGLVQPGGSLRLSCAASGFTFSSYWIHWVRQAPGKGLEWVSVISGDGDTTYYADSVKGRFTISRDNSKNTLYLQLNSLRAEDTAVYYCARSRGLVLDAFDYWGQGTLVTVSS
VL: DIQLTQSPSSLSASVGDRVTITCRASQSVSGRFLAWYQQKPGKAPKLLIYDASSLESGVPSRFSGSGSGTDFTLTISSLQPEDFATYYCQQYDYWPPYTFGQGTKVEIKR
notes: also called IgG of Fab 5353
Kd [1]: 19 nM
koff [1]: 0.006 s⁻¹
kon [1]: 310000 M⁻¹ s⁻¹

B4: AG10085 (antibody, human IgG4 S228P, kappa, V domains shown)
VH: EVQLVESGGGLVQPGGSLRLSCAASGFSLSTSGVGVGWIRQAPGKGLEWVSGISGAGDSTYYADSVKGRFTISRDNSKNTLYLQLNSLRAEDTAVYYCAREGSDTVLGDWFAYWGQGTLVTVSS
VL: DIQLTQSPSSLSASVGDRVTITCRASQDIRSYLAWYQQKPGKAPKLLIYDASNRATGIPSRFSGSGSGTDFTLTISSLQPEDFATYYCQQGYSIWTFGQGTKVEIKR
notes: also called IgG of Fab 5367
Kd [1]: 54 nM
koff [1]: 0.0079 s⁻¹
kon [1]: 150000 M⁻¹ s⁻¹

B7: AG10081 (antibody, human IgG4 S228P, kappa, V domains shown)
VH: EVQLVESGGGLVQPGGSLRLSCAASGYSISSGHYWGWIRQAPGKGLEWLALIDWYGDKYYSTSLKSRLTISRDNSKNTLYLQLNSLRAEDTAVYYCARSDYYGSHFDYWGQGTLVTVSS
VL: DIQLTQSPSSLSASVGDRVTITCRASESVDFDGFSFLAWYQQKPGKAPKLLIYDASNLETGVPSRFSGSGSGTDFTLTISSLQPEDFATYYCQQYDTLPRTFGQGTKVEIKR
notes: also called IgG of Fab 5299
Kd [1]: 6.9 nM
koff [1]: 0.0017 s⁻¹
kon [1]: 240000 M⁻¹ s⁻¹

B8: AC1097 (antibody, V domains shown)
VH: EVQLVQSGAEVKKPGESLRISCKGSGYSFSTYWISWVRQMPGKGLEWMGKIYPGDSYTNYSPSFQGQVTISADKSISTAYLQWSSLKASDTAMYYCARGYGIFDYWGQGTLVTVSS
VL: SYELTQPPSVSVSPGQTASITCSGDNIGDQYAHWYQQKPGQSPVLVIYQDKNRPSGIPERFSGSNSGNTATLTISGTQAMDEADYYCATYTGFGSLAVFGGGTKLTVL
binding result [2]: no binding
% in upper right quadrant (Hu_CRD3): 0.22%
Mean (Hu_CRD3): 12700
% in upper right quadrant [3]: 0.59%
Mean [3]: 16200
binding result [4]: no binding (tested: 100 nM (text paragraph 220))
% in upper right quadrant [5]: 0.005%
binding result [6]: no binding

B9: AG10079 (antibody, human IgG4 S228P, kappa, V domains shown)
VH: EVQLVESGGGLVQPGGSLRLSCAASGFSLSTGGVGVSWIRQAPGKGLEWVSSISGSGGTTYYADSVKGRFTISRDNSKNTLYLQLNSLRAEDTAVYYCARDDLYSWYFDVWGQGTLVTVSS
VL: DIQLTQSPSSLSASVGDRVTITCRASQGIGSSLAWYQQKPGKAPKLLIYAASSLQSGVPSRFSGSGSGTDFTLTISSLQPEDFATYYCQQGYYTWTFGQGTKVEIKR
notes: also called IgG of Fab 4074
Kd [1]: 1.4 nM
koff [1]: 0.00027 s⁻¹
kon [1]: 190000 M⁻¹ s⁻¹

B11: AG10082 (antibody, human IgG4 S228P, kappa, V domains shown)
VH: EVQLVESGGGLVQPGGSLRLSCAASGYTFSNYWIHWVRQAPGKGLEWVSYISGDGDTTYYADSVKGRFTISRDNSKNTLYLQLNSLRAEDTAVYYCAREGSTTVAGDWFAYWGQGTLVTVSS
VL: B9 VL with S32F, A34G, A50D, Q55E, G91Y, Y93S, T94L, W95V
notes: also called IgG of Fab 5300
Kd [1]: 13 nM
koff [1]: 0.0072 s⁻¹
kon [1]: 560000 M⁻¹ s⁻¹

Continued, values first:

Kd [1]: 3 nM
koff [1]: 0.00037 s⁻¹
kon [1]: 120000 M⁻¹ s⁻¹
B2: AG10128 (antibody, human IgG4 S228P, kappa, V domains shown)
VH: EVQLVESGGGLVQPGGSLRLSCAASGFSLSTGGVAVGWIRQAPGKGLEWLALIDWAGDKSYSTSLKSRLTISRDNSKNTLYLQLNSLRAEDTAVYYCAREGEDAVTGDWFAYWGQGTLVTVSS
VL: B4 VL with R24Q, S31T
notes: also called IgG of Fab 5342

Kd [1]: 6 nM
koff [1]: 0.003 s⁻¹
kon [1]: 500000 M⁻¹ s⁻¹
B3: AG10124 (antibody, human IgG4 S228P, kappa, V domains shown)
VH: B4 VH with S32G, G37A, G52S, A56Y, D58S, S59T, T105A, A112G
VL: B4 VL with R24Q, R30T, S31T, S93Y, I94L
notes: also called IgG of Fab 5302

Kd [1]: 5.9 nM
koff [1]: 0.00094 s⁻¹
kon [1]: 160000 M⁻¹ s⁻¹
B5: AG10062 (antibody, human IgG4 S228P, kappa, V domains shown)
VH: EVQLVESGGGLVQPGGSLRLSCAASGYSISSGYHWAWIRQAPGKGLEWIGEIYHSGSTYYSPSLKSRVTISRDNSKNTLYLQLNSLRAEDTAVYYCARSPYYYGVFDYWGQGTLVTVSS
VL: DIQLTQSPSSLSASVGDRVTITCSASSRVGSVYWYQQKPGKAPKLLIYDASNLETGVPSRFSGSGSGTDFTLTISSLQPEDFATYYCQQYTHDPVTFGQGTKVEIKR
notes: also called IgG of Fab 5404

Kd [1]: 10 nM
koff [1]: 0.012 s⁻¹
kon [1]: 1.2e+06 M⁻¹ s⁻¹
B6: AG10080 (antibody, human IgG4 S228P, kappa, V domains shown)
VH: EVQLVESGGGLVQPGGSLRLSCAASGYSISSGYYWDWIRQAPGKGLEWVSSISGDGDTTYYADSVKGRFTISRDNSKNTLYLQLNSLRAEDTAVYYCAREYYGYGYALDYWGQGTLVTVSS
VL: DIQLTQSPSSLSASVGDRVTITCRASQGISSYLAWYQQKPGKAPKLLIYDASSLESGVPSRFSGSGSGTDFTLTISSLQPEDFATYYCQQYYSTPLTFGQGTKVEIKR
notes: also called IgG of Fab 4217

Kd [1]: 12 nM
koff [1]: 0.0069 s⁻¹
kon [1]: 570000 M⁻¹ s⁻¹
B10: AG10083 (antibody, human IgG4 S228P, kappa, V domains shown)
VH: EVQLVESGGGLVQPGGSLRLSCAASGFSLSTSGVGVGWIRQAPGKGLEWIGEIYHSGSTYYSPSLKSRVTISRDNSKNTLYLQLNSLKAEDTAVYYCAREGSDVVTGDWFAYWGQGTLVTVSS
VL: B9 VL with G30S, S32V, A50D, Q55E, Y93S, T94L
notes: also called IgG of Fab 5323
